In general, Kd refers to the concentration at which binding is half-saturated.

The values that follow come from PMC12533375, “Critical Role of IL1R2‐ENO1 Interaction in Inhibiting Glycolysis‐Mediated Pyroptosis for Protection Against Lethal Sepsis” (Advanced Science, 2025).

This test concerns the target T1, recombinant mouse ENO1 (rmENO1) (mouse, UniProt P17182 1-434).
T1 construct: recombinant mouse ENO1, Creative BioMart Cat. No. Eno1-244 M; The vendor's data sheet should be consulted; source: bought: Creative BioMart (Cat. No. Eno1-244 M)
In words: SPR; OpenSPR (Nicoya); rmIL1R2 immobilised on a carboxyl sensor (EDC/NHS), rmENO1 as analyte at 12.5 to 50 nM; 40 µL/min, 20 °C; 50 mM Tris-HCl, 150 mM NaCl, 3 mM EDTA, 0.05% P20, 0.5 mM CaCl2, pH 7.4; global 1:1 fit. The note with it: both partners purified.

T1 sequence (P17182 whole entry): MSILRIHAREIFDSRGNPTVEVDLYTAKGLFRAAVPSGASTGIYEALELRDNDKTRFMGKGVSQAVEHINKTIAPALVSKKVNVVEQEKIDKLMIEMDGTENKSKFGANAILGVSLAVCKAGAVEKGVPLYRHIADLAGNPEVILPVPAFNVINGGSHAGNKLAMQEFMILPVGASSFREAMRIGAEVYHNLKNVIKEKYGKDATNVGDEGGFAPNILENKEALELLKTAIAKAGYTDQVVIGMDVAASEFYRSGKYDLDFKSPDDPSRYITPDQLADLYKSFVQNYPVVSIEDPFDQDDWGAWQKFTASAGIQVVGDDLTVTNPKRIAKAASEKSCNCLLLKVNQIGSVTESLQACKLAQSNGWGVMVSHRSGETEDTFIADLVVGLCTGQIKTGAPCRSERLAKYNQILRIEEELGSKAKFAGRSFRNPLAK

B1: recombinant mouse IL1R2 (rmIL1R2) (receptor, UniProt P27931 14-355, looked up)
chain: FTTPTVVHTGKVSESPITSEKPTVHGDNCQFRGREFKSELRLEGEPVVLRCPLAPHSDISSSSHSFLTWSKLDSSQLIPRDEPRMWVKGNILWILPAVQQDSGTYICTFRNASHCEQMSVELKVFKNTEASLPHVSYLQISALSTTGLLVCPDLKEFISSNADGKIQWYKGAILLDKGNKEFLSAGDPTRLLISNTSMDDAGYYRCVMTFTYNGQEYNITRNIELRVKGTTTEPIPVIISPLETIPASLGSRLIVPCKVFLGTGTSSNTIVWWLANSTFISAAYPRGRVTEGLHHQYSENDENYVEVSLIFDPVTREDLHTDFKCVASNPRSSQSLHTTVKE
notes: recombinant mouse IL1R2, R&D Systems Cat. No. 563-MR-100; The vendor's data sheet should be consulted; source: bought: R&D Systems (Cat. No. 563-MR-100)
On to B1, for which the Kd was found to be 1.99 nM.
